{"source": "patent US20160053277A1", "about": "“Compositions Having Dicamba Decarboxylase Activity and Methods of Use” (PIONEER HI-BRED INTERNATIONAL, INC., priority 2013, published 2016)", "molecules": {"B1": {"name": "61 (protein, listed as Gordonia amarae)", "chain": "MATGAGSGVPSPADRVIVRSPGVIDVHAHAVLPMSLGCAGAAGPEIGYREDGSPFFRVGEYVLNGVRYEGSAFMDPEVRVAAMDAAGIGLQMISPNPITYFTRLDARSATDYARAHNDAIAEAAGRHPGRLVGAAQLPMQDVPAAIAELERSVRELGLVAAYIDTDIGDRTLDAPELDDFYSAAVELDVPVFIHPSPVGQEGPPDDTRLRRFDLDLLLGFSYDETLAVAALVFGGVLERHPALDVCLSHGGGTLAFVAGRFARAVAKPRAWVPEFLVENGIESYLRRLWLDTHVHSAGSLRLLIDTVGTDRLVFGTNFAGWDADGATEVDALGDLRETTTANAAHLLRLGRA"}, "B2": {"name": "62 (protein)", "chain": "MAVGGKNFRDVTDQVWCPKKRIEDMDREGVDIQVLSPIPVTFSYWAKPEEAESMARIQNDFIAETVLAYPDRFVGLGTVPMQDGETAIREMERCITELNLHGIEIGTNVNGKNLDDPSFIEFFRMAEKWQVPIFIHPWETLGRDRMPHHNFMYTVGMPSETALAAATLIWSGIMEKFPRLKVCFAHGGGSFPYILPRLDQGWKVWPHLRLTTHPPSYYAKKFYFDSLNYDPINLKYMIERFGHEKIFMGSDYPFLLREVDPGKVIDETASLSEEQKAAMLGGNAAEFLNIDIKKRGVAYAESTNT", "modifications": "Bacillus thuringiensis serovar pulsiensis"}, "B3": {"name": "64 (protein, listed as Achromobacter piechaudii)", "chain": "MAIQKIDMHAHFFPPITRQEAAALDPVNAPWLRPDADGATGQIMAGEREFRPVDATLWDPALRIEQMDRHGVDVQILCATPIMFGYTYPARPAADWAARMNDLALEHCAYAPSRLKALAQVPLQDLELACQEASRARAAGHLGVQIGNHVGPRDLDDETLVQFLIHCANNDIPVLVHPWDMMTDGRMKKWMLPWLVSMPAETQLGILSLILSGAFERIPRSLKLCFAHGGGSFAYLLGRVDNAWRHRDIIRQDCPQLPSSYTDRFYTDSAVFDPRSLRLLIDVMGEDRVLLGSDYPYPLGEQEVGRLVAHAELVPEVQQKILFRNTMTFFGLQPGLQPGLQS"}, "B4": {"name": "68 (protein, listed as Hoeflea phototrophica)", "chain": "MAIIDAHTHTLCPAVNEKVAGTIKPDSVPYQRDMSPESKEQDHTQFPELKIMFNQVERRLADMARMGIDRQVIAPAPGQQHYWAEPKLLAEISALQNDHVAELVARAPDRFAGIGTLPMTDPDAAVAEITRATRELGLRVFQIDSRVMERELSDASLDPIYAALEAAGAGLMIHPLGFSNGERLTPFFMVNSVAQPLEELLAFNHLVFGGVLDRFPKLKVYIAHGGGFAPFYIGRFDHAWKVRPEVNRLTPSAPSTYLRRIYFDTCVYRTDHIETLVRTVGADRVMLGSDYPFDMGDTDPLGLLNACQGLSDDEKATISSKVAIDFFGLET"}, "B5": {"name": "69 (protein, listed as Microbacterium testaceum)", "chain": "MATSTEGQDVTDVHAHLLMPGLHAEVERRVPDEVQAAADLELRRNGLASLQASGRMIGERFPRLTDVRARLAAMDEQGVDRQWVSPSPNHFYPWANEGLATWASGEANRLIAEHVALAPDRLVGLGVVPLQHPHLVVDALDDAVLGRGLAGVEISSFAGDVELSDERLESFWARAAELRAVVFLHPFGCSLDERLDRFYLSNTVGQPTENAVALSHLIFSGVLDRHPGLRLIAAHGGGYLPTAIGRSDRAWRVRPEARGCAHAPSTYLSKLWFDTVVHDERALRWLVEAAGADRVLLGSDFPFDMGLDDPVAFVRGAGLQDAEVSGILGGNAAELLRTRVHA"}, "B6": {"name": "70 (protein, listed as Alicyclobacillus acidocaldarius)", "chain": "MAIEPNRAADVHTHFLPTEVLEFLKREPRIQVDLERRAPDKEPFLTVEGRWSFELKRMFVDFEAFASAYRQAGIGLALVSPLPQLFVYHLPAEMGAQVAEVYNDALRDVLAPHRERFRPLATLPLADPTAAARELERRMDEGFVGAIVGPGVGEALIGDEAFWPLWEVADARRAVLFLHPLLHADPRAARLMLPNLVGVPWETTLAAAHLVLSGLLDRYPGARVLLAHGGGFLPYQIGRIEQGYDVWPQVRGRLQDRPTAYLRRMFYDNVLWSDAALRCLIDVVGADRVLAGSDFPFDLSAWPPRPGADVSVLAGGSGREGRLS"}, "B7": {"name": "71 (protein, listed as Burkholderia dolosa)", "chain": "MARAGHRAARTRQSRPGDRTMTCSCCMSAGRRRVLGAFAALAGAPKGPRAASAAQPAAASKPTRGDATARNRHSRALLPGKASASWSATKASGSGGAFAWDDTTFTFRTPAGGLGPLPMKFIDVDARLRDMDASGVDVQALSLSVPMAYWGDRPFNAKLARAWNTAASRVHVRAPDRFVVLATLPMLDATDAIDELERASELPGVRGVYMGTNIDNRDLDDPRFAPVFARIEQLGLPVFLHPQQTVGGARLGDFYLSNLLGNPFDTAIAASHLILGGVLDRHPALHFTLPHAGGALPILVGRLDAGWTVRAETRRLAHQPSGYLRRFSYDTVSHSGPVLNFLIENVGIDRLVLGSDYCFDMGYEQPVRFLDRLDLTPDERAMVIGGNAGRLLRI"}, "B8": {"name": "72 (protein)", "chain": "MADCPCCVSPKRRRLLGSVSAIAAGMMAGLPALAAQPSTAAAGTGKPLSIDIHAHYYSESFLGLLGGEGKQFGGHFFRNDDSFTFQTPAGGLGPLPMKFIDVEQRVRDMDNSGVDVQAISLSVPMVYWADRTLNAKLARAWNTAASDVHRKHPTRFVVLATLPMLNANDAIDELEFAAGLPGVRGIYMGTNINNRDLDDPLFSPIFKRIEQLNLPIFLHPQQTVGGARLADFYLSNLLGNPFDTAIAASHLILGGVLDKYPALHFSLPHAGGALPILVGRIDAGWSMRSETKRVAQKPSSYLRRFSYDTISHSGPTLDFLIRNIGADRLVLGSDYCFDMGYEQPVRFLDRLALPDDQKRMVVGGNAARLLNL", "modifications": "Cupriavidus necator"}, "B9": {"name": "73 (protein, listed as Sphaerobacter thermophilus)", "chain": "MARIDAHAHAQPPEYLDALLASGRYESVRDAEGRIVVRERGSRFLTITPQMHHPEQRVAEMDEAGIDMQILSVTTPQVYFLQGQAAVDLARRCNDYLADIVRSYPTRFRALASVPLTADPDAAVREFVRCLDDLGMVGAIIGSNIDGRPIDDPAFDAFYAEADRRATTLFIHPMVPAGIEVMNPYALAPLVGFMFDTTLAVSRLIFSGFFERYPRVKVLVGHLGAAVPYLAGRLDIGWRSYSDCQGIPHPPTEYIRRLYLDTVSFHAPALRCALETVGPDRIVFGSDYPHVIGDVGGAIASIQQALPATTHDGVLGHTAAELFGVSA"}, "B10": {"name": "74 (protein, listed as Ramlibacter tataouinensis)", "chain": "MATVIDVHTHMFTTKWLELLKKEGGQYNIQTRPDGQQEIFRGNTPVVIPQKGHFDWKLRIQHMDQAGIDVSVVSLTCPNVYWGGEDVSVRAAREANDNVAQAQTAYPDRIRWFASLPWEYMATVIDVHTHMFTTKWLELLKKEGGQYNIQTRPDGQQEIFRGNTPVVIPQKGHFDWKLRIQHMDQAGIDVSVVSLTCPNVYWGGEDVSVRAAREANDNVAQAQTAYPDRIRWFASLPWEYPQRAVEELERSCAQGAAGVMVLANVAGRSLTDPLFAPVWAEIDRRALPVLVHPTDPPGVDLMDMTKFDLSWSVGFMFDTTLAITRMIFEGFFDRYPNLRIIASHGGGTLPYLVGRFEKGDEVELASRRQMKRKPTDYLRHIHYDCITYNLGALQYLISVVGAGQVMFGTDWPHWVHDTRGAFANTAQLPQEQTRAVRGANAQRLFKL"}, "B11": {"name": "75 (protein, listed as Ectocarpus siliculosus)", "chain": "MAKIDSYTHFACPAFMDHLEAESGHPMVFRGLFSSIPELSDIDLRIRYMDEHGIDVHCLVPLPWLECEPGLHADEGKALEACRIANDEMARVVARFPDRLIGVALIPTTTEQAMIQETTRAVKELGMAGVALFVGPTAKPPDMACFEGLYRTCEELGAVVWMHPCRPQSYADYDSYKGEGSKHQIWNTFGWIYDTSVAMVHIALAGVFRRYPGLKVVTHHHGAMVPFFTARFDTQRRNFQEVEGDDLLEDLRLFYCDTATFGESAANIQQAIDFFGKSQVLFGTDTPMDMGTRGMFTRTTIASVEALGAAPEDKESFYAGNVLDMLGERFAGISGARGAVAARPKGDSTRIAASL"}, "B12": {"name": "76 (protein, listed as Polymorphum gilvum)", "chain": "MAKKIDIFNHIWPEPFFKALIAHIGEMTDITMRSGAVPMMTNLDRRFEVMDMFGPDYMQVLSLASPPLEKLADPAKALELSRIGSDSLAELCQRYPERFPAFIGTAPLSNPAAVVGECRRAIEDLGAAGMQIFTNVAGKPLDLAEFEPFFEYMASAGKPVWLHPARGEAFADYQTEKRSEYEIWWTFGWPYETSAAMARLVFSRMFDKYPGLKVITHHAGGMVPFFEGRVGPGWDQMGARTTDRDLAAVRKALKRPHLDYFKEFYADTASFGSRKAIEHAIEFFGEDRVLFASDAPFDPEGGPMYIRETMRCIDSLDLTDAQRRKIYHGNATALLGLSL"}, "B13": {"name": "77 (protein)", "chain": "MALIDLHAHAPHPGYYNQHPHWGPFFERHEDGDVKLRVGDWILTLGSPERKALVRAGKGPTVEEYQARWADPKVRLAGMDAAGQNAQVVSVPSHCYMYWAEKEFSVPFATKVNDTFAEYCSAAPDRLMFWAHAALNAPEQAALELRRACTELGAKGLVAGGANFGGLEFDSPELDPVWKVLCDLDLPMFIHGYNQSVTWGKKANDDRYETTAIVGMQYDETRCFWNLVCGGVLDRFPGLKVYITHGGGYVPYQLGRLAQCNGNLDVAHNKKPVLEYLKNNFYFDVELHEVPMRQALIDIIGADRVLYGSNFGGSDAVRHDLTEGLRLSDDDLQKIRWKNACKLLHLDPAKIGEPAKKQAVSA", "modifications": "Burkholderia xenovorans"}}}
{"assay": "14C assay with IPTG-induced recombinant E. coli cells: 14CO2 captured from [14C]-carboxyl-labeled dicamba", "conditions": "dicamba decarboxylation activity of the protein of the given SEQ ID NO; High / Low / No"}
{"molecule": "B1", "Enzymatic Detection level": "No"}
{"molecule": "B2", "Enzymatic Detection level": "No"}
{"molecule": "B3", "Enzymatic Detection level": "Low"}
{"molecule": "B4", "Enzymatic Detection level": "No"}
{"molecule": "B5", "Enzymatic Detection level": "No"}
{"molecule": "B6", "Enzymatic Detection level": "Low"}
{"molecule": "B7", "Enzymatic Detection level": "Low"}
{"molecule": "B8", "Enzymatic Detection level": "Low"}
{"molecule": "B9", "Enzymatic Detection level": "Low"}
{"molecule": "B10", "Enzymatic Detection level": "Low"}
{"molecule": "B11", "Enzymatic Detection level": "Low"}
{"molecule": "B12", "Enzymatic Detection level": "No"}
{"molecule": "B13", "Enzymatic Detection level": "No"}
{"assay": "14C assay with IPTG-induced recombinant E. coli cells: 14CO2 captured from [14C]-carboxyl-labeled dicamba", "conditions": "induced recombinant E. coli cells, [14C]-carboxyl-labeled dicamba, 14CO2 capture"}
{"molecule": "B1", "Dicamba Decarboxylase Activity": "No"}
{"molecule": "B2", "Dicamba Decarboxylase Activity": "No"}
{"molecule": "B3", "Dicamba Decarboxylase Activity": "Low"}
{"molecule": "B4", "Dicamba Decarboxylase Activity": "No"}
{"molecule": "B5", "Dicamba Decarboxylase Activity": "No"}
{"molecule": "B6", "Dicamba Decarboxylase Activity": "Low"}
{"molecule": "B7", "Dicamba Decarboxylase Activity": "Low"}
{"molecule": "B8", "Dicamba Decarboxylase Activity": "Low"}
{"molecule": "B9", "Dicamba Decarboxylase Activity": "Low"}
{"molecule": "B10", "Dicamba Decarboxylase Activity": "Low"}
{"molecule": "B11", "Dicamba Decarboxylase Activity": "Low"}
{"molecule": "B12", "Dicamba Decarboxylase Activity": "No"}
{"molecule": "B13", "Dicamba Decarboxylase Activity": "No"}
{"assay": "Saturation mutagenesis of SEQ ID NO:109: dicamba decarboxylation activity of point mutants (carbon dioxide released)", "conditions": "decarboxylation activity (carbon dioxide released) of point mutant compared with unmutated backbone protein; backbone SEQ ID NO: 109"}
{"molecule": "B1", "Fold Activity": 2.4}
{"molecule": "B2", "Fold Activity": 1}
{"molecule": "B3", "Fold Activity": 1.8}
{"molecule": "B4", "Fold Activity": 1.3}
{"molecule": "B5", "Fold Activity": 1.3}
{"molecule": "B6", "Fold Activity": 1.7}
{"molecule": "B7", "Fold Activity": 1.5}
{"molecule": "B8", "Fold Activity": 1.2}
{"molecule": "B9", "Fold Activity": 1.2}
{"molecule": "B10", "Fold Activity": 1.4}
{"molecule": "B11", "Fold Activity": 1.7}
{"molecule": "B12", "Fold Activity": 1.1}
{"molecule": "B13", "Fold Activity": 1.3}
